Publication PMC11960969, “Mdga2 deficiency leads to an aberrant activation of BDNF/TrkB signaling that underlies autism-relevant synaptic and behavioral changes in mice” (PLOS Biology, 2025)

B1: sp¦Q9JK53¦PRELP_MOUSE (protein, UniProt Q9JK53 22-378, looked up)
Prolargin: QPTRPKPGIRRKPKPRPTPRFPQAPEPAEPTDLPPPLPPGPPSVFPDCPRECYCPPDFPSALYCDSRNLRRVPVIPPRIHYLYLQNNFITELPLESFQNATGLRWVNLDNNRIRKVDQRVLGKLPSLAFLYMEKNQLEEVPSALPRNLEQLRLSQNLISRIPPGVFSKLENLLLLDLQHNRLSDGVFKADTFQGLKNLMQLNLAHNILRKMPPKVPQAIHQLYLDSNKIETIPNGYFKDFPNLAFIRMNYNKLSDRGLPKNSFNISNLLVLHLSHNKISNVPAISNKLEHLYLNNNSIEKINGTQICPNNLVAFHDFSSDLENVPHLRYLRLDGNFLKPPIPLDLMMCFRLLQSVVI
B2: sp¦Q80TF3¦PCD19_MOUSE (protein, UniProt Q80TF3 22-1145, looked up)
Protocadherin-19: LINLKYSVEEEQRAGTVIANVAKDAREAGFALDPRQASAFRVVSNSAPHLVDINPSSGLLVTKQKIDRDLLCRQSPKCIISLEVMSSSMEICVIKVEIKDLNDNAPSFPAAQIELEISEAASPGTRIPLDSAYDPDSGSFGVQTYELTPNELFGLEIKTRGDGSRFAELVVEKSLDRETQSHYSFRITALDGGDPPHMGTVGLSIKVTDSNDNNPVFGESTYSVSVPENSPPNTPVIRLNASDPDEGTNGQVVYSFYGYVNDRTRELFQIDPHSGLVTVTGALDYEEGHVYELDVQAKDLGPNSIPAHCKVTVSVLDTNDNPPIINLLSVNSELVEVSESAPPGYVIALVRVSDRDSGLNGRVQCRLLGNVPFRLQEYESFSTILVDGRLDREQHDQYNLTIQARDSGVPMLQSAKSFTVRITDENDNHPHFSKPYYQVIVQENNTPGAYLLSVSARDPDMGLNGSVSYQIVPSQVRDMPVFTYVSINPNSGDIYALRSFNHEQTKAFEFKVLAKDGGLPSLQSNATVRVIILDVNDNTPVITAPPLINGTAEVYIPRNSGIGYLVTVVKADDYDEGENGRVTYDMTEGDRGFFEIDQVNGEVRTTRTFNENSKPSYELIVVAHDHGKTSLSASALVLIYLSPALDAQESMGSVNLSLIFIIALGSIAGILFVTMIFVAIKCKRDNKEIRTYNCSNCLTITCLLGCFIKGQNSKCLHCISVSPNSEEQDKKAEEKVSLRGKRIAEYSYGHQKKSSKKKKISKNDIRLVPRDVEETDKMNVVSCSSLTSSLNYFDYHQQTLPLGCRRSESTFLNVENQNTRNTTASHIYHHSFNSQGPQQPDLIINGVPLPETENYSFDSNYVNSRAHLIKSSSTFKDLEGNSLKDSGHEESDQTDSEHDVQRSLYCDTAVNDVLNTSVTSMGSQMPDHDQNEGFHCREECRILGHSDRCWMPRNPMPTRSKSPEHVRNIIALSIEATAADVEAYDDCGPTKRTFATFGKDVSSHRAEERPILKGKRTVDVTICSPKVNSAIREAGNGCEAISPVTSPLHLKSPLPTKPSISYTVALAPPAHDLEHHANSGASRPSEAEPRGADNEKVMHEVNPIRKDGRDKESPSVKRLKDIVL
B3: sp¦Q80TS7¦DEND_MOUSE (protein, UniProt Q80TS7 1-710, looked up)
Dendrin: MLDGPLFSEGPDSPRELQDEESGSCLWVQKSKLLVIEVKTISCHYSRRAPSRQSMDIQASYWARGPQSRTCRLRPGSPEPPPRRPWASRVLQEATNWRAGPPAEVRAREQEKRKAASQEREAKETERKRRKAGGARRSPLGQPRPEPRNALRAAQPTGFPVFSRPERFGQVGRAPRPSVLPQGDPGVAWAGPWGGRRPGPPSYEAHLLLRGSAGTAPRRRWDRPPPYVAPPSYEGPHRTLGTKRGPELSRAPTSSAPVPATTRTEGGRTKKRLDPRIYRDVLGAWGLRQGRGLLGGAPGCTAARARPESCKGAIEKSSGLVAAGLNSAGDSHSQGKTTGGPGTDAALSRSAISSPPRPVPRSRQHLRGSRKGKEGSEQIWLPTCWLASPKKPPVRHSQTLPRPWAPGGTGWKESLGQREGAEHETLEVWKVTRRAHTLPRISRGPAGREGIFVIDATCVVIKSQYVPTPRTQQGQLVPSGESCSVSDSLSQPKPCHEEEGEGAAANPSVCQKRLLSSRVLNQPSEGRECEAEVGQQGDSSLEERSSSGLGFPVGEVNPRDAPTQPGSQEHPTLGPAAPVCAGSLKGSEAAGVPRRAGGGWARTPGPYAGALREAVSRIRRHTAPDSDSDEAEDLSVHSGSSDGSDTDAPGASWRNERTLPALGNTRPREGGKTAGLSDSIREIVDVISQTEEGFIREDTRKTPQGNRERE
B4: sp¦Q8BTY2¦S4A7_MOUSE (protein, UniProt Q8BTY2 1-1034, looked up)
Sodium bicarbonate …: MEADGAGEQMRPLLTRGPDEEAVVDLGKTSSTVNTKFEKEELESHRAVYVGVHVPFSKESRRRHKHRGHKHHHRRRKDKDSDKEDGRESPSYDTPSQRVQFILGTEDDDEEHIPHDLFTEMDELCYRDGEEYEWKETARWLKFEEDVEDGGDRWSKPYVATLSLHSLFELRSCILNGTVMLDMRASTLDEIADMVLDNMIASGQLDDSIRENVREALLKRHHHQNEKRFTSRIPLVRSFADIGILASPQSAPGNLDNSKSGEMKGNGSGGSRENSTVDFSKVDMNFMRKIPTGAEASNVLVGEVDFLERPIIAFVRLAPAVLLSGLTEVPVPTRFLFLLLGPAGKAPQYHEIGRSIATLMTDEIFHDVAYKAKDRNDLLSGIDEFLDQVTVLPPGEWDPSIRIEPPKSVPSQEKRKIPVFPNGSAAMSVGPPKEDDHHAGPELQRTGRLFGGLILDIKRKAPFFLSDFKDALSLQCLASILFLYCACMSPVITFGGLLGEATEGRISAIESLFGASLTGIAYSLFAGQPLTILGSTGPVLVFEKILFKFCRDYHLSYLSLRTSIGLWTSFLCIVLVATDASSLVCYITRFTEEAFAALICIIFIYEALEKLFHLGEIYAFNMHNNLDELTSYTCVCAEPSNPSNETLELWKRKNITAYSVSWGNLTVSECKTFHGMFVGSACGPHGPYVPDVLFWCVVLFFTTFFLSSFLKQFKTKGYFPTKVRSTISDFAVFLTIVIMVAIDYLVGIPSPKLHVPEKFEPTDPSRGWIISPLGDNPWWTLLIAAVPALLCTILIFMDQQITAVIINRKEHKLKFIPMPVLYGVFLYMGVSSLKGIQFFDRIKLFGMPAKHQPDLIYLRYVPLWKVHVFTVVQLTCLVLLWVIKASAAAVVFPMMVLALVFVRKLMDLCFTKRELSWLDDLMPESKKKKEDDKKKKEKEEAERMLQDDEDTVHLPFERGSLLQIPVKTLKYSIDPSVVNISDEMAKTAQWKALSMNTENAKVTRPNTSPEKPVSVTINFEDEPSKKYMDAETSL
B5: sp¦Q71FD5¦ZNRF2_MOUSE (protein, UniProt Q71FD5 2-238, looked up)
E3 ubiquitin-protein ligase …: GAKQSGPAANGRTRAYSGSDLPSGTGSGGGGADGARAARFAAPVSGAQQPSASAGAAAAAAAAASAPAAPRSRSLGGAVGSASGGRAAQSAFSIPSAGGGGGPYGSQDSVHSSPEDSVGARDRDRPAGGGPGGPRLVIGSLPAHLSPHLFGGFKCPVCSKFVPSDEMDLHLVMCLTKPRITYNEDVLSKDTGECAICLEELQQGDTIARLPCLCIYHKGCIDEWFEVNRSCPEHPSD
B6: sp¦Q7TT15¦GLT17_MOUSE (protein, UniProt Q7TT15 1-598, looked up)
Polypeptide …: MASLRRVKVLLVLNLIAVAGFVIFLAKCRPIAVRSGDAFHEIRPRAEVANLSAHSASPIQDAVLKRLSLLEDIVYRQLNGLSKSLGLIEGYGGRGKGGLPATLSPSEEEKAKGPHEKYGYNSYLSEKISLDRSIPDYRPTKCKELKYSKELPQISIIFIFVNEALSVILRSVHSAVNHTPTHLLKEIILVDDNSDEEELKAPLEEYVHKRYPGLVKVVRNQKREGLIRARIEGWKAATGQVTGFFDAHVEFTAGWAEPVLSRIQENRKRVILPSIDNIKQDNFEVQRYENSAHGYSWELWCMYISPPKDWWDAGDPSLPIRTPAMIGCSFVVNRKFFGEIGLLDPGMDVYGGENIELGIKVWLCGGSMEVLPCSRVAHIERKKKPYNSNIGFYTKRNALRVAEVWMDDYKSHVYIAWNLPLENPGIDIGDVSERKALRKSLKCKNFQWYLDHVYPEMRRYNNTIAYGELRNNKAKDVCLDQGPLENHTAILYPCHGWGPQLARYTKEGFLHLGALGTTTLLPDTRCLVDNSKSRLPQLLDCDKVKSSLYKRWNFIQNGAIMNKGTGRCLEVENRGLAGIDLILRSCTGQRWAIKNPIK

system: hippocampal proteins; experiment: DIA quantification proteomics, hippocampus of Mdga2+/- vs WT mice; parameters: species or system mouse; details: Mdga2+/- vs WT mouse hippocampus (HET-HIP-VS-WT-HIP); S3 Table, downregulated DEPs; SE, pvalue and adj_pvalue in own columns c3-c5
Description: The hippocampus of 1.5–2-month-old Mdga2^ +/− male mice and their WT littermate controls was collected and sent to the BGI company for DIA quantification proteomics and data analysis. Briefly, samples were lysed and sonicated. After centrifugation, the supernatant was taken for quantification. Equal amounts of proteins (100 μg) per sample were subjected to trypsin enzymatic hydrolysis. After dryness, 10 μg enzymatic peptides per sample were separated by high-pH fractionation into a total of 10 fractions using high-performance liquid chromatography (HPLC) and freeze-dried. Data-dependent acquisition (DDA) fractions and DIA samples were analyzed by nano-LC–MS/MS. DDA data was identified by Andromeda search engine within MaxQuant. Identified results were used by Spectronaut^TM for spectral library construction. For DIA data, Spectronaut^TM used the constructed spectral library information to complete deconvolution and extraction, and used the mProphet algorithm to complete analytical quality control for obtaining reliable quantitative results. The mass spectrometry proteomics data have been deposited to the ProteomeXchange Consortium via the PRIDE [62] partner repository with the dataset identifier PXD050810. DEPs between comparison groups were identified based on the quantitative results, using the fold change >1.1 and p-value <0.05 as the criteria. After retrieval from the UniProtKB database, identified DEPs were processed for GO analysis by using DAVID (https://david.ncifcrf.gov/home.jsp) and Metascape database (https://metascape.org/gp/index.html).

Molecule | log2FC
B1 | -1.413
B2 | -1.393
B3 | -1.4022
B4 | -1.445
B5 | -1.4
B6 | -1.487

same assay, conditions: regulation class of the protein, HET-HIP-VS-WT-HIP; S3 Table, downregulated DEPs

Molecule | Class
B1 | Down
B2 | Down
B3 | Down
B4 | Down
B5 | Down
B6 | Down
